We go through one molecule from patent publication EP4671269A1.

Conditions in all cases: remark: other sources report otherwise
Assay [1] addresses T1, TGF-β2, P61812.
T1 chain: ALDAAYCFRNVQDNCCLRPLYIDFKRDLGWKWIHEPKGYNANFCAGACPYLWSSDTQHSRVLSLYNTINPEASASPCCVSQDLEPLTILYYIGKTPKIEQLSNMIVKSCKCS
Kind of assay: indirect ELISA; […]. In general terms: In an ELISA, binding on a coated surface is turned into a signal by an enzyme label.

Assay [2] deals with T1, TGF-β2, P61812. Kind of assay: indirect ELISA; 0 (blank).
Assay [3] deals with T1, TGF-β2, P61812. Nature of the assay: indirect ELISA, TGF-β2 coated.
Assay [4] concerns the target T1, TGF-β2, P61812. Nature of the assay: indirect ELISA; […] diluted 1:3.
Assay [5] has as its target T1, TGF-β2, P61812. Nature of the assay: indirect ELISA; […] diluted 1:9.
Assay [6] deals with T1, TGF-β2, P61812. Nature of the assay: indirect ELISA; […] diluted 1:27.
The target of assay [7] is T1, TGF-β2, P61812. Nature of the assay: indirect ELISA; […] diluted 1:81.
Assay [8] concerns the target T1, TGF-β2, P61812. Kind of assay: indirect ELISA; […] diluted 1:243.
In assay [9] the target is T1, TGF-β2, P61812. Kind of assay: indirect ELISA; […] diluted 1:729.

Where “and” joins values, the source holds several entries; their conditions need not be identical. Equal values may be shown once.

B1: TGF-βRII-mFc, P37173 24-159 (Fc fusion, UniProt P37173 24-159, looked up, not shown: a dimerising Fc or GST)
chain: IPPHVQKSVNNDMIVTDNNGAVKFPQLCKFCDVRFSTCDNQKSCMSNCSITSICEKPQEVCVAVWRKNDENITLETVCHDPKLPYHDFILEDAASPKCIMKEKKKPGETFFMCSCSSDECNDNIIFSEEYNTSNPD
In general, EC50 refers to the concentration at which the effect is half-maximal. Consider B1, for which the OD450 in the assay with TGF-β2, P61812 [1] was 1.46 OD and 1.44 OD; with TGF-β2, P61812 [2], 0.176 OD and 0.16 OD; with TGF-β2, P61812 [4] it was 1.34 OD and 1.32 OD; with TGF-β2, P61812 [5], 0.908 OD and 0.925 OD; with TGF-β2, P61812 [6] it was 0.432 OD and 0.462 OD; in the assay with TGF-β2, P61812 [7] it was 0.253 OD and 0.211 OD. Besides, the OD450 in the assay with TGF-β2, P61812 [8] was 0.202 OD and 0.158 OD; in the assay with TGF-β2, P61812 [9] it was 0.184 OD and 0.152 OD. Moreover, the EC50 with TGF-β2, P61812 [3] was determined as 1.03 nM.
